# Measurements published in article PMC4856991.
# Molecular target: Hsp90alpha recombinant (UniProt P07900 1-732)
# Assay: filter binding
binder,measurement,value
"CTGCTAGCCTCTGGATTTGA (XNA, full PS; LNA nt 1-5 and 16-20, DNA 6-15) [390896 PS/LNA 5-10-5]",Kd,17.7 nM
